Experimental data taken from PMC7210950, “Btk SH2-kinase interface is critical for allosteric kinase activation and its targeting inhibits B-cell neoplasms” (Nature Communications, 2020).
Square brackets hold non-standard residues; d marks the D form. Ends that are not written are not given here. pY = N[C@@H](Cc1ccc(OP(=O)(O)O)cc1)C(=O)O

Legend:
Assay in all cases: fluorescence polarisation; Btk SH2 WT and mutants at several concentrations with 1 µM FITC-labeled peptide; Tris 40 mM pH 8, 150 mM NaCl, 1 mM DTT; 1:1 binding model
Conditions in all cases: both partners purified
[1] = molecular target: T1, Btk SH2 domain, wild-type (recombinant) (human, UniProt Q06187 271-383)
T1 construct: SH2 domain of human Bruton's tyrosine kinase (Btk); the construct is in PDB 6HTF; Construct limits are not in the text; also called Btk SH2 WT; human Btk SH2 domain; source: E. coli Bl21(DE3), purified (Ni-NTA, TEV cleavage, SEC); not shown: His6, N-terminal, cleaved; GST, N-terminal, cleaved
T1 sequence (Q06187 271-383): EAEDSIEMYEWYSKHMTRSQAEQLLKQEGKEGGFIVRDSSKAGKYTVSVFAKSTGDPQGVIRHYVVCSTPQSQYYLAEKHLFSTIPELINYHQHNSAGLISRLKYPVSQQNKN

[2] = molecular target: T2, Btk SH2 domain H364D (XLA mutation) (human, UniProt Q06187 271-383, H364D)
T2 construct: SH2 domain of human Btk with the XLA patient mutation H364D; Same limits as m1; source: E. coli Bl21(DE3), purified (Ni-NTA, TEV cleavage, SEC); not shown: His6, N-terminal, cleaved; GST, N-terminal, cleaved
T2 sequence (Q06187 271-383 H364D): as the sequence (Q06187 271-383) above, with H94D counted along it

[3] = molecular target: T3, Btk SH2 domain R372G (XLA mutation) (human, UniProt Q06187 271-383, R372G)
T3 construct: SH2 domain of human Btk with the XLA patient mutation R372G; Same limits as m1; source: E. coli Bl21(DE3), purified (Ni-NTA, TEV cleavage, SEC); not shown: His6, N-terminal, cleaved; GST, N-terminal, cleaved
T3 sequence (Q06187 271-383 R372G): as the sequence (Q06187 271-383) above, with R102G counted along it

[4] = molecular target: T4, Btk SH2 domain K374N (XLA mutation) (human, UniProt Q06187 271-383, K374N)
T4 construct: SH2 domain of human Btk with the XLA patient mutation K374N; Same limits as m1; also called Btk SH2 K374N; source: E. coli Bl21(DE3), purified (Ni-NTA, TEV cleavage, SEC); not shown: His6, N-terminal, cleaved; GST, N-terminal, cleaved
T4 sequence (Q06187 271-383 K374N): as the sequence (Q06187 271-383) above, with K104N counted along it

[5] = molecular target: T5, Btk SH2 domain S371P (XLA mutation) (human, UniProt Q06187 271-383, S371P)
T5 construct: SH2 domain of human Btk with the XLA patient mutation S371P; Same limits as m1; source: E. coli Bl21(DE3), purified (Ni-NTA, TEV cleavage, SEC); not shown: His6, N-terminal, cleaved; GST, N-terminal, cleaved
T5 sequence (Q06187 271-383 S371P): as the sequence (Q06187 271-383) above, with S101P counted along it

[6] = molecular target: T6, Btk SH2 domain K296E (XLA mutation) (human, UniProt Q06187 271-383, K296E)
T6 construct: SH2 domain of human Btk with the XLA patient mutation K296E; Same limits as m1; source: E. coli Bl21(DE3), purified (Ni-NTA, TEV cleavage, SEC); not shown: His6, N-terminal, cleaved; GST, N-terminal, cleaved
T6 sequence (Q06187 271-383 K296E): as the sequence (Q06187 271-383) above, with K26E counted along it

Measured: binding result

B1: FITC-labeled pY-peptide (ADNDpYIIPLPD) (peptide)
peptide: ADND[pY]IIPLPD
modifications: also: FITC label, end not given here
notes: also called fluorescently labeled pY-peptide
binds: all assays above
